For series [1], the target named is T1, NTwt (wildtype N-terminal (NT) fragment of Euprosthenops australis major ampullate spidroin 1) (Euprosthenops australis).
T1 chain: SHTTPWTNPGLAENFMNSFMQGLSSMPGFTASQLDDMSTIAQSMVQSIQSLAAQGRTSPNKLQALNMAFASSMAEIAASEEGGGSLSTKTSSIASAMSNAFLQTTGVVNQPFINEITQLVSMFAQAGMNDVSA
The experiment in a line: tryptophan fluorescence ratio 339/351 nm vs pH, 5 µM protein in 20 mM HEPES/20 mM MES; homodimerization. Conditions: remark: other sources report otherwise.

Series [2] concerns the molecule itself. The series can be described thus: tryptophan fluorescence ratio 339/351 nm vs pH (self-association / dimerization). As to the method:
Fluorescence emission spectra for NT_{D40K/K65D} (SEQ ID NO: 2) and NTwt (SEQ ID NO: 11), respectively, were measured on a spectrofluorometer (Tecan Safire 2) using Costar® black polystyrene assay plates with 96 flat bottom wells. The proteins were diluted to a concentration of 5 μM in 20 mM HEPES/20 mM MES adjusted to pH 5.6-8.0 in steps of 0.4 pH units. After exciting the samples at 280 nm (5 nm bandwidth), emission spectra were recorded in 1 nm steps between 300-400 nm (10 nm bandwidth). The tryptophan fluorescence ratio was calculated from the intensities at 339 nm and 351 nm and plotted as a function of pH. […]
The pH-dependent monomer-dimer equilibrium of NT can be monitored through the fluorescence shift of a single tryptophan (Trp) residue that becomes more exposed in the dimer. FIG. 2 is a graph illustrating the monomer-dimer equilibrium measured with Trp fluorescence. Trp fluorescence spectra between 300 and 400 nm were measured in 20 mM HEPES/20 mM MES buffer and the ratio at 339/351 nm (wavelengths corresponding to monomer and dimer conformations, respectively) was calculated and plotted as a function of pH for NTwt (dotted line) and NT_{D40K/K65D} (filled line). The ratio of fluorescence at 339 and 351 nm as a function of pH gives a sigmoidal plot for NTwt with a pKa of dimerization at pH 6.5. […]

Changes are numbered by the printed parent chain. Names and notes keep the numbering of the source.

B1: NTwt (wildtype N-terminal (NT) fragment of Euprosthenops australis major ampullate spidroin 1) (protein)
chain: T1 chain
On to B1, for which the pKa of dimerization in series [1] stood at 6.5 pH.

B2: NTD40K/K65D (charge-reversed double mutant of the NT fragment) (other)
chain: T1 chain with D36K, K61D
notes: Expressed in E. coli BL21 (DE3); also called charge-reversed NT mutant; NT mutant
As to B2, the binding result in series [2] is “no binding (tested: 5 µM protein, pH 5.6-8.0)”.

The values are drawn from patent US20200207819A1 (SPIBER TECHNOLOGIES, published 2020).
